The results in this text go back to article PMC4299175.

The experiment deals with GST-tagged recombinant phosphorylated human ERK2 (human) (UniProt P28482).
Sequence of UniProt P28482 (P28482 whole entry): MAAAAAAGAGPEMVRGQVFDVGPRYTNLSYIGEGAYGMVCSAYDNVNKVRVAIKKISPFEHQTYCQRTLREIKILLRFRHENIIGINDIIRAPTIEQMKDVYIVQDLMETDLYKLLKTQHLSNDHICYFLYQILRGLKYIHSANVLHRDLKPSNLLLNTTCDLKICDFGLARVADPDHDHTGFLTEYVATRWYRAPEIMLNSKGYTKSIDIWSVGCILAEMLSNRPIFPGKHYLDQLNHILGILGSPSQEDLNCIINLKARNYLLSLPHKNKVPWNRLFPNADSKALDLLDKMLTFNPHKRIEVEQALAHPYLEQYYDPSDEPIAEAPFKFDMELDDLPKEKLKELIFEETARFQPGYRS

B1: GST-S147P, glutathione-S-transferase-tagged full-length human DUSP5 serine 147 proline mutant (enzyme)
chain: MKVTSLDGRQLRKMLRKEAAARCVVLDCRPYLAFAASNVRGSLNVNLNSVVLRRARGGAVSARYVLPDEAARARLLQEGGGGVAAVVVLDQGSRHWQKLREESAARVVLTSLLACLPAGPRVYFLKGGYETFYSEYPECCVDVKPIPQEKIESERALISQCGKPVVNVSYRPAYDQGGPVEILPFLYLGSAYHASKCEFLANLHITALLNVSRRTSEACATHLHYKWIPVEDSHTADISSHFQEAIDFIDCVREKGGKVLVHCEAGISRSPTICMAYLMKTKQFRLKEAFDYIKQRRSMVSPNFGFMGQLLQYESEILPSTPNPQPPSCQGEAAGSSLIGHLQTLSPDMQGAYCTFPASVLAPVPTHSTVSELSRSPVATATSC
Regarding B1, the dephosphorylation of pERK2 by western blot, dose curve 0.1-10 nM enzyme, 15 min; concentration at which the pERK band is completely absent (0.5 nM for GST-DUSP5) stood at 5 nM.
